Experimental data as given in the DeepSol protein solubility set.

Test: soluble on expression in E. coli; label from the status in PepcDB or PDB records

| Sequence | soluble on expression in E. coli |
| --- | --- |
| PVKVVVGKTFDAIVMDPKKDVLIEFYAPWCGHCKQLEPIYTSLGKKYKGQKDLVIAKMDATANDITNDQYKVEGFPTIYFAPSGDKKNPIKFEGGNRDLEHLSKFIDEHATKRSRTKEEL | soluble |
| PVLFLALPALAQERKKVGVVLSGGGAKGVAHIQALKVIEEAGIPIDYIVGTSMGSIIGGLYSIGYTPQQLDSMVRKQDWMFLLSDRVKRSAMSLNEREKSEKYVFSFPFTKSPKDAVSGGIIKGQNLANLFTELTVGYHDSVDFNKLPIPFACVSQNIVNGEQIVFHNGILATAMRASMAIPGVFTPVRKDSMILIDGGMINNYPVDVARSMGADIIIGVDVQNNLKGID | not soluble |
| QALIKEARLTPKPGLVDSTNNGSHQDMSLSTFEQSAIALRPFFTQFVLMGIETTNLPDSHILSKIRPLGLQAEQAMFVATNQVNTHKGAIFAFGLVCTALGRHFSRWQNKMMSSPSFEISQDTTGISLISETVARFTQGITDELKNYSKNQPLTAGITLYQQYGFTGARGEAEKGFPLVQQAVVFILSQAESEMRWYWALLYLMANNNDTNIVHRGGINGLQFIQDEAHKRLGNAKNLQNANALMASLREFDDDCIARNLSPGGSADLLALTIFFLSLLYC | not soluble |
| QAVGGKIADDAQKVAGLYAEKKRTNWTQANGVAGKISHKIQSLLGMRDAGSRVQAFVAFMADGKGRPGATMLDLGDGWMRATRVIKGEAALIDFQCDSDGKVVDARHPGRFPVLPQGNEREAFKTVLQELKFRGAETLSKVPVYYVNRNTRGYVIPTHGYVVAGHPNRGRKSGAVLYGVGGDPKRGPVALDEKLLGHLVGRSDSKTSSKLSAPVKAAISALAGASFATREDFYDAYCAVRGDAVDPLERHNEISSIYRLLPLSTMEMWPKKADDYRVARPAAPERDLRAFENLPKDIGRKAQLKKVSNVDSIDLLEAKRQFTLHQLYQDEMLGRNGTGVPSADFKPKVDAQRRDQLVASTPKFQRLPPHTTDKVGNCNTGASSLLQRAVDTYTEKNNLPPEKVTAASIFGIGSSHRLAIWDPLDGSSSNKSSKDR | not soluble |
| QEKSARDLMIAVDLSGSMAVEDFTLPIATNELTNRAKNDTDSSATKSSTNDTGKGEKVNRLVAVKHVLNAFVKSREHDRLGLILFGDAPYLQAPFTDDIATWQALLNESDIGMAGQSTAFGDAIGLAISVFQQSDTQNRVLIVLTDGNDTASKVPPVEAAKVAAARDIKIYTIAIGDPSAVGEEKVDLEVLQAMAEITQGKSFQALNSEELLKVYAEI | not soluble |
| QIVDCWETWSRCTKWSQGGTGTLWKSCNDRCKELGRKRGQCEEKPSRCPLSKKAWTCICY | soluble |
| QIVLTQSPAIMSASPGEKVTMTCSASSSVSYMHWYQQKSGTSPKIWIYESSKLASGVPVRFSGSGSGTSYSLTISSMEAEDVATYYCQQWSSHPHPLTFGAGTKLELKRADAAPTVSIFPPSSEQLTSGGASVVCFLNNFYPKDINVKWKIDGSERQNGVLNSWTDQDSKDSTYSMSSTLTLTKDEYERHNSYTCEATHKTSTSPIVKSFNRNEC | soluble |
| QLLGATVVEHNPLYTAHELEGLFQDHGARVAIAWDKAASTLEKLRDTTSLETIISVNMTEAMPRIQQLALRIPIPPIAAKREQLTAFADNTVPWSTLIGNAIGGNGKRTEFPKVTKDDIALILYTSGTTGTPKGALLSHGNLVSNCFMGKAWVPGLGDQPER | not soluble |
| QLVIERVSLPNPGKEKMTQALLTYVRRQGLSSLNWTPAAESLLERIRCAVDWLPEQAWPMFDEASLLDSLDEWLEPYMTSVA | not soluble |
| QSTIKIVLIEDTKTLDEVVVIGYGTQKKSDVSGSVTSVSGDKLSKIPTANAEMALQGMAPGLSVNFGSGAAGSSATLQVRGVTSWKDDDGENSESNGPLVIIDGVPGNMSYLNPEDIKSISVLKDAATAAIYGSRSAAGVILIETHRGT | not soluble |
| QTVLKPKVYVRARPKDMNGQGALLSGSVVDIGSGAIENRGGLIAGREALILNAQNIKNLQGDLQGKNIFAAAGSDITNTGSIGAEN | not soluble |
| QVAKNPAPQAVEQAQSSSSLPAPSFADELDPVPGQQQASAKTITVTTDVLTLSIDTVGGDVVHADLNQYSAELDSSDPFVLLKDTQGHQFIAQSGLVGPQGIDLSSSNRPHYNVSADSFTLADGQDELRVPMTFTANGIEYTKTYVLKRGSYALNVEYDVANNSGNNATFGMYAHLRQNLMDAGGSITMPTYRGGAYSTEDTRYKKYSFEDMQDRNLSINLADGQGWAAMIQHYFAAAWIPRNEPGTNLYTRVIGNLGDIGVRMPNKTIATGDQAKFEATLWVGPKLQQEMAAVAPNLDLVVDYGWLWFIAKPLHS | not soluble |
| QVQLVESGGGSVQAGGSLRLSCTASGYTIGPYCMGWFRQAPGGEREAVAAINMGGGITYYADSVKGRFTISRDNAKNTVTLQMNSLKPEDTAMYYCAADSTIYASYYECGHGLSTGGYGYDSWGQGTQVTVSSRGRHHHHHH | soluble |
| QVQLVESGGNLVQPGGSLRLSCAASGFTFGSFSMSWVRQAPGGGLEWVAGLSARSSLTHYADSVKGRFTISRDNAKNSVYLQMNSLRVEDTAVYYCARRSYDSSGYWGHFYSYMDVWGQGTLVTVS | soluble |
| QVSDEDVMLMIRQGAKKGVFESVEYEMISRIFRMSDKRASALMTPRNEIEWLDLERPDEELVARIKASGRSRFPVAKGSLDELQGVVRSLDLVNFSLSSKGSIREAIRASMKPPLFVPESVPAFHVLELFKKNRAHMALVIDEHGSVQGAITLTDVLESIVGDVPADDMEGD | not soluble |
| QYRPMSEKQFSRPVLIVPPQINKYYIFDLSPANSFVQYALKNGLSTFIISWRNPDIRHREWGLSSYVEAAEQAMNICRAISGAREVNLVGACAGGLTIAALLGHLQVKRQTRRVASATYMVSLLDSQIDSPATLFIDEQALEAAKRRSYQRGVLEGSEMSRVFSWMRPNDLIWTYWINNYLLGKSPPPFDILYWNNDTTRLPAALHGDLLDFFKHNPLSHAGGLEVCGTPIDLQKVTVDSFSVAGINDHITPWDSVYRSTLLLGGDRRFVLANSGHVQSILNP | not soluble |
| RCGAGGYEALRGPLGAAGRRARQAWTIAPGSRRRGKAAAQSSVPGAGHAGGGAAPRRPAAAVRPGSPPLAGALTPRPSPLQGPFPGRLLAGPPPRFPGGTMTDTRRRVKVYTLNEDRQWDDRGTGHVSSGYVERLKGMSLLVRAESDGSLLLESKINPNTAYQKQQDTLIVWSEAENYDLALSFQEKAGCDEIWEKICQVQGKDPSVDITQDLVDESEEERFDDMSSPGLELPSCELSRLEEIAELVASSLPSPLRREKLALALENEGYIKKLLELFHVCEDLENIEGLHHLYEIIKGIFLLNRTALFEVMFSEECIMDVIGCLEYDPALSQPRKHREFLTKTAKFKEVIPISDPELKQKIHQTYRVQYIQDMVLPTPSVFEENMLSTLHSFIFFNKVEIVGMLQEDEKFLTDLFAQLTDEATDEEKRQELVNFLKEFCAFSQTLQPQNRDAFFKTLSNMGILPALEVILGMDDTQVRSAATDIFSYLVEYNPSMVREFVMQEAQQNDDDILLINLIIEHMICDTDPELGGAVQLMGLLRTLVDPENMLATANKTEKTEFLGFFYKHCMHVLTAPLLANTTEDKPSKDDFQTAQLLALVLELLTFCVEHHTYHIKNYIINKDILRRVLVLMASKHAFLALCALRFKRKIIGLKDEFYNRYIMKSFLFEPVVKAFLNNGSRYNLMNSAIIEMFEFIRVEDIKSLTAHVIENYWKALEDVDYVQTFKGLKLRFEQQRERQDNPKLDSMRSILRNHRYRRDARTLEDEEEMWFNTDEDDMEDGEAVVSPSDKTKNDDDIMDPISKFMERKKLKESEEKEVLLKTNLSGRQSPSFKLSLSSGTKTNLTSQSSTTNLPGSPGSPGSPGSPGSPGSVPKNTSQTAAITTKGGLVGLVDYPDDDEDDDEDEDKEDTLPLSKKAKFDS | soluble |
| RENFPGVSWDSLPDELLLGIFSCLCLPELLKVSGVCKRWYRLASDESLWQTLDEFRVQHMDLSNSVIEVSTLHGILSQCSKLQNLSLEGLRLSDPIVNTLAKNSNLVRLNLSGCSGFSEFALQTLLSSCSRLDELNLSWCFDFTEKHVQVAVAHVSETITQLNLSGYRKNLQKSDLSTLVRRCPNLVHLDLSDSVMLKNDCFQEFFQLNYLQHLSLSRCYDIIPETLLELGEIPTLKTLQVFGIVPDGTLQLLKEALPHLQINCSHFTTIAR | soluble |
| RIPVKYGNADGEYCKFPFLFNGKEYNSCTDTGRSDGFLWCSTTYNFEKDGKYGFCPHEALFTM | soluble |
| RKILDSKAIDLMNALMRLNQIRPGLQYKLLSQSGPVHAPVFTMSVDVDGTTYEASGPSKKTAKLHVAVKVLQAMGYPTGFDADI | soluble |
| RLSDVLSADVYQQAHSPLSLALGVDIGGHPMVVDLAKMPHLLVAGTTGSGKSVGINAMILSILFKASPEQVRLIMVDPKMLELSVYDGIPHLLTPVVTDMKEAASALRWCVEEMERRYRLMAALGVRNLAGYNTKITEAAANGQPLLNPLWKPVDSMDETAPELQALPYVVVVIDELADMMMVVGKKVEQLIARIAQKARAAGIHMILATQRPSV | not soluble |
| RNAAHQLYYRPTPDDGYLLAGYPWFDVRARDLFVALPGCTLCVEAPERFERIVNTVIPAMERYMRLHEDDDTIHGLHEPDVGIWAIWAIQQYARRNGLEAAKRFGSFVSEVVSYYLSAQHPTAQIRENGLLYVLGTGFPLSWMDAKLNGKAVIPREGYLVELNALWYNALCFERELNGEKPEIGEIISRIERSFPDTFLNCYNYLFDYVQDGKAQDWSVRPNMLFAISLPYSPLQRDRQLQVLEIITRELLTPKGLRSLSPKSEGYRPYCRGKQEERELAYYNGSVWPWLLGQYTEAYLRLYGNSGVTFLERMLIGMEEELQMHGIGTISELFDGNPPFMGRGAISFAMSVGEILRAKELLNRTESDMHLSVRHMYNYTKWKG | not soluble |
| RNEHTGELRLGASTTIAQYVLPPLLARFIEKFPQVSLSLFSGNSSEVEKALQEHRIDLALVEGNTRQPNLKYTPFLQDELVAIVHTHSKWMDYDEITLDELKEVPLVLRERGSGTLDVLITALHKHNIKLSDLTIRMHLGSTESIK | not soluble |
| RPAEEIIQGQIEVTEYRVSSKVPGRIKELRVSEGQQVQAGDTLAVIEAPDVAAKMEQAKAAEAAAQAQNAKALKGARSEQIQAAYEMWQKAQAGVAIATKTHQRVQNLYDQGVVPAQKLDEATAQRDAAIATQKAAEAQYNMARNGAEREDKLAASALVDRARGAVAEVESYINETYLIAPRAGEVSEIFPKAGELVGTGAPIMNIAEMGDMWASFAVRED | not soluble |
| RPDPFPQNGLPAARLAMVAREMGHIAPFVRAVYAAQFGRGLVISDPQVLAECWAEAGLPPEAMEQAKSPEIKAALFAQGERAAALDLFGAPSFVVGEEVFWGDDRLDQALALAAQS | not soluble |
| RSEMHEECSPDFTAQFHLAAEHTAHIFQHLPETEPDDFQTALDTLRGELDTLRTHSSGTQSHILLQQLQLIARQLEPYYRAYRQIPHRQPQNAA | not soluble |
| RTLGEVWKERLNQMTKEEFTRYRKEAIIEVDRSAAKHARKEGNVTGGHPVSRGTAKLRWLVERRFLEPVGKVIDLGCGRGGWCYYMATQKRVQEVRGYTKGGPGHEEPQLVQSYGWNIVTMKSGVDVFYRPSECCDTLLCDIGESSSSAEVEEHRTIRVLEMVEDWLHRGPREFCVKVLCPYMPKVIEKMELLQRRYGGGLVRNPLSRNSTHEMYWVSRASGNVVHSVNMTSQVLLGRMEKRTWKGPQYEEDVNLGSGTRAV | soluble |
